The values below come from the domain aggregation screens of Martell et al. (2025).

This data set in a line: soluble fraction after stress (log2 fold change); higher = more stays soluble; pooled small domains, quantitative proteomics. The conditions noted are these: stress: 75 degC.
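Note: 20 min heating vs room temperature control held 20 min.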

As for “HMSEPQEISYSDFIEQVNRNEIRQVEFDGQHEYLTVIRKDTSRFKVIIPAPDPRLLDDLMEHDVEIVGKE”, the “soluble fraction (log2)” value is -0.123. In the case of “HMSEQYEQIQLALKTLTQDEQDIVRLVVVEGASLRTAGKNLGVSAMTIQRRLKRALARLRDLLAS”, the “soluble fraction (log2)” value was -0.839. To “HMSESKYKMIKNWIKSKILDGTLVPNQKIYSESELMEIFDVSRHTVRLAIGELVSEGYLFKRQGTGTFVTQ” belongs -2.82; to “HMSETTSRVLQLLGLLQARRVWTGQELADRLGVTGRSVRRDIERLRDLGYPVHASKGRDGGYQLGA”, -1.61. With “HMSEYILATNDGEFLRITSYSKEEGGMLVWEKTSSIVSAEHKVIPYSQIINIKDRNGDVVWDKD”, the “soluble fraction (log2)” value is -0.988. To “HMSEYNPGIYRVTDPALNIRTGPGVEYPVVGVIKDQGSYTITEIRNKSWGRLLSGAGSTAIKHIVFT” belongs 0.214.

Take “HMSFEITGDELILRFVKDKGGATTEQIRKHWEASNRGGKSDNNLTNLVKSGKLLRSKDPNGPGSLYTAS”: the “soluble fraction (log2)” value was -0.0632. Take “HMSFESMGLTPRQADVLTLLLQGKSNKDIARRLVLSVETVKDHVQAVLRALGVSSRTQAVLAVGQMTQQ”: the “soluble fraction (log2)” value is -0.584. In the case of “HMSFGYFQLRAKDPQKLKSVLEKIPQIQSIKEEKGDLIGYLNADMEAEELSQKLAAAKIFVTHMAKKK”, the “soluble fraction (log2)” value was -0.583. Turning to “HMSFISRMVVAVEDIALSTRPNSTPSGDKYVSKGTVLLMEKRENDWVEVRQPSSPLSGWAPKTSLLSV”, the “soluble fraction (log2)” value was -0.246.

As to “HMSFNLSETKKLILEEIQKGVSSVTQIAATAGISKGMTYNHLRELKLMGYIADGDSGYVITDAGKIAS”, the “soluble fraction (log2)” value was -0.448. Next, “HMSFRYLHVKRQLMSLIGTMNAHERLPSRTDLSETFQVARTTIERAISELIGEGWLYARDGSGTYVAER”: -3.45.

In the case of “HMSFSTHHEYYIYNLAVDMRKGYDGLSGLVVNELGRQPWDGSVYVFFNTMRDKVKLLVWDTDGYVIYSKR”, the “soluble fraction (log2)” value is -0.279. To “HMSFTDLILKSANAIDEMGGIWENGKQILGEKAIAIHEEIVDNGLNPDKDGFYKLANGQMIQYG” belongs 0.0518; to “HMSFVEVTVSELKNYVNSHARIKLKSGKEFKGFILDANEEGVIIKVQLRGGTAESTISYNRIDRAAVF”, -4.01. In the case of “HMSGAERAAALLVALGPEVASEIMKFLDDESIQKLASEIAKIEVLSPQEKEDLIGQFLLELKKT”, the “soluble fraction (log2)” value is -0.419. Next, “HMSGAWEVGLLRQFTDWMGTQYNAYAGRNFDAITVAQVAEKNPELLTPFVESFFKERVEPALAAG”: -1.08; “HMSGEDYLERILMLKEKHGNVRAIDIANSMNFSKPSVSIALHKLSENGYVVIQNNGAIELTEKGLEVAT”: -0.455. For the sequence “HMSGEIPFPPAFKPSADHIAIASEKGINIETELLNFRDYHQARGTKLIDWNSAFRVWLRNAR”, the “soluble fraction (log2)” value is -0.531. To “HMSGEITVPNLIGVEAIQAKTLLIQAGFLIKEFYDLDSTQPAGVVIRQAPEAGTTQTIGKSVTITINKQ” belongs -1.25. For “HMSGENAVLTEGTMVTVRRGGETITATARKETVKQFLSRMDIIPGSREMVGIELMENSVMLTISD”, the “soluble fraction (log2)” value is -0.889. On to “HMSGFPTDAQIVREIRNILPTLENPTPRMVRKALENTFEVDMGESKTKKYINNIIITEYEKWSSVQSIRE”, for which the “soluble fraction (log2)” value is -0.603. For “HMSGGNTSAFKGKLNYEYRGNDTIITGSTYPVKELIKKAGGRWDPGSSAWIIKGRHVSDNEIF”, the “soluble fraction (log2)” value came out at 0.054. Consider “HMSGQKDVPDLYGMTVKQAKKEVEAAGFKLKEGKEVYSNDYSKGQIAEQDPESGSKAKKGSSITVHVSKG”, for which the “soluble fraction (log2)” value was 0.0162. For the sequence “HMSGRIWTDNYGRTIEADVIKVNINRTVLLEFTDKKTKTVSFDTFISKDIQYLEYLLTRRNRGKL”, the “soluble fraction (log2)” value was -3.98.

In the case of “HMSGRVPTADDIAVGMKVYVPRLGGTGTVVTEPVRDKVVIQVGSLRLHAEVAELLLPDEHGRIQVPR”, the “soluble fraction (log2)” value is -0.844. Next, “HMSGTGSYVALLRDPQGNVGKVVVKGSKGEQVLSQPQQAARLDGATPSYEVTGRQIAEDFGRALAV”: 0.144; “HMSGTYIATVEAGSLDIYKSMTSNETIGKASRGDVFQILEDMGSGYARVSYNDVEGYMSIKTGDASIEEL”: 0.113.
